Assay results taken from the DeepSol protein solubility set.

Assay: soluble on expression in E. coli; label from the status in PepcDB or PDB records

| Sequence | soluble on expression in E. coli |
| --- | --- |
| MDDLTIEILTDDADYDLQRFDCGEEALNLFLTTHLVRQHRNKILRAYILCRNTPERQVLGYYTLCGSCFERAALPSKSKQKKIPYKNIPSVTLGRLAIDRSLQGQGWGATLVAHAMNVVWSASLAVGIHGLFVEALNEKAHTFYKSLGFIPLVGENENALFFPTKSIELLFTQSD | not soluble |
| MGSDKIHHHHHHAMDNYDYETVVTLIEPDCQDSLLLITKAQALKAMNRYPEAIGVLNSLILKDSTNTKVLIDLAECYKLTGNSRRAANCYQKAMNLQPENKFFRLQFIRSLLASEDYEEARTACHGWLERDSLSATGYKYLGQAYEGLQDAASAFLSYNIAYRRDSLDAQTVARIAGIFNNNQQFKDAVDVTEVYRLSDTTNIDVNRQNAKAYCMLKEYGTAVKRYESLKELGDRSFLTLYYLGVSHYGDNWFYGAYDNLKEAYQKNPMDVNVLYYLAKASARTSWKKEGVEYMEEAFRIAVPSDSMMVRLYDGLVECYDYAGDTKKEVEALEKLYIYTKKNSILYKIACLYDWKEDEKNAIRYYRKYMATVSEDQRYALDEDGNPVEDRITLYQQAWKRIKKIKEEGFFRGDIPTKSFPVEKKDTLALRHAK | not soluble |
| MMPLNRQSTTPLYIQLYQQMRDDYDATQANHQLWSIRKMAQNLGVSKTTVEQAYDQLLAEGYVYTVPGSGYFYRDRTHWPAAKQALETVPQPTKPRAFTYDFRYGVTQLLSPSWNAWKRAVRLALRQTEQQPTAVYPDAQGLPALRENLVRFLKTTRGVRCTADQIVITSGAKAGLSILLSILPRGTVGIENPGYRGLSELAASYGQTAVPIRVTEDGLDLTQVRARNPQIIYTTPGHQFPLGVVLPIEKRLALLQWAGTQHLIIEDDYDSEYRYSAHPLPALQSLATANQVAYLGTFSRGIDPTLRMGYLVLPPQLVATYHQRYQYRAEMVAGLLQQAMANYFEDGAYYRHLSRNRAANRQKYRVLCHQLAQTKQIRPIATGAGVHLVVQIPGIAQAKLLEALEQQQVRIYPLSSNWRDMPTTDYYLLGFAGLTLSELTTGVKRLVQVCEQLVR | not soluble |
| MSLKPIFGRGPSLQLRLFFAVMLSASLMLADSRLGAFSHVRFLLNSLVAPIQYAADLPRVLFDDFYDSISSHQQLRENNQLLKREVLTLKSNLLLLEQYKEENQRLRKLLGSSFLRDEKKVVTEVMAVDTSPYRHQVVIDKGRVDGVYEGQPIINEKGIVGQVTFVAAHNSRVLLLIDPNTAIPVQNIRNDIRVIASGNGQTDQIQLEHIPTSTDIEVGDMLVTSGLGGVYPEGYPVAIVSQVDKDTRREFASIKADPVVEFDRLRYLLLIWPNEDRLQKVMQADPQVLLEEEANAQEGHHHHHH | soluble |
| MNNKLIYRSVRFATHNSQLLLPPLVLYRRILRQHKLLPGPQREMGDQYVRNEFKLHKDIDNPLHIVGFLASWQDYLHMISNGKWKDATLSSETLEKLSPEQTVQLYELMKETQKLHQDNEIESSKDVKRNNKD | not soluble |
| LEAVAPERPRCAYCSAEASKRCSRCQNEWYCCRECQVKHWEKHGKTCVLAAQGDRAK | soluble |
| MGSDKIHHHHHHMFEAFGDMSLDLLRAFEVAARLRSFTAAAIELGTIQPAVSQQIKRLEEQLATRLFDRIYRGIELTEAGEILFSHVQAGLQSIDSGLIAITEQQQHEVLQVATDFAFAAYWLMPRLHRFHKLNPDVDVSLVTSERTHSMLRADIDVTVLFGDGRFKQGESRWLFSEEVFPVCSPLLIADRQTPLPNDALRDFPLLHLRGDSINNWFDWSGVFRALDIPQAPAPGQLRFDNYTLLIQAAIGGQGIAIGWKHLVDDLLDQGLLCRPIAGAAISGHGYYVVLPQRKRRVQIVQQFMDWLASEQALSGVSLAGRPLPSIAV | not soluble |
| MQYINIANRGVKSLSPYQAGKPIEELERELGISNIVKLASNENPFGFPESAKKAIFEQLDKLTRYPDANGFELKQTIAKKFGVQPNQITLGNGSNDLLELFAHTFATEGDEIMYSQYAFIVYPLVTKAINAIVKEIPAKNWGHDLQGFLTALSDKTKLIYIANPNNPTGNFLTSQEIEDFLAEVPENVIVVLDEAYTEFTRSEERVDSFSLLKKYSNLIISRSLSKAYGLAGLRIGYAVSNPEIADLLNRVRQPFNCNSLALTAAVAVMNDDKFVEKVAENNRIEMRRYEDFCQKNQLDYIPSKGNFITIDFKQPAAPIYDALLREGVIVRPIAGYGMPNHLRISIGLPEENDKFFTALSKVLKFA | not soluble |
| MLPFLFFSTLFSSIFTEAQKQYWVCNSSDASISYTYCDKMQYPISINVNPCIELKGSKGLLHIFYIPRRDLKQLYFNLYITVNTMNLPKRKEVICRGSDDDYSFCRALKGETVNTTISFSFKGIKFSKGKYKCVVEAISGSPEEMLFCLEFVILHQPNSNLEHHHHHH | not soluble |
| DDFEDSLEYLEPLDHDAYIVRLNFTGENTTEPIISYMTKTHNIDVNILEADIKNTKNGSLGFLVIHIPHISEEHFKQFKHNLHEQHVNVEVLKHG | not soluble |
| MNTLGRFLRLTTFGESHGDVIGGVLDGMPSGIKIDYALLENEMKRRQGGRNVFITPRKEDDKVEITSGVFEDFSTGTPIGFLIHNQRARSKDYDNIKNLFRPSHADFTYFHKYGIRDFRGGGRSSARESAIRVAAGAFAKMLLREIGIVCESGIIEIGGIKAKNYDFNHALKSEIFALDEEQEEAQKTAIQNAIKNHDSIGGVALIRARSIKTNQKLPIGLGQGLYAKLDAKIAEAMMGLNGVKAVEIGKGVESSLLKGSEYNDLMDQKGFLSNRSGGVLGGMSNGEEIIVRVHFKPTPSIFQPQRTIDINGNECECLLKGRHDPCIAIRGSVVCESLLALVLADMVLLNLTSKIEYLKTIYNEN | soluble |
| MGSDKIHHHHHHMSREINAGGHHFLYGGISRGVHYWDNKDFSEQSLRLSFGHQNRSVTRSFGTVPFVGQNLLGGSRYNFAGGFNADFSRRLGERWRLTLNAGNMWKHYQEDRTAARYGSHMPLAGATLMYSAPKDRLLYGGADWPHDMTKEAEQASVRKGLRVGAVKTFDGGLGLRANLRYTRRTFDAPGTIVYRFPRKDHEYQANLSLRHDKISWKGFTPQLNFRYLKIGSNMKSFYTRKNTQIFMSVEKDFK | not soluble |
| MKIAVTKFLGTNCDLDVCHAVKLAGGEPELVFFTQENLDSYKGAVIPGGFSYGDYLRAGAISARTPIIKGLKKMVEEGKPVLGICNGAQIGLEAGFSKGTLTNNLNAKFICKWVYIRVENNKTPFTQYYKKGEVLKIPIAHAEGRFYADDETLDYMYKNNMIVFKYCDETGEVTEEANPNGSIDNIAGVCNENQNCVLLMPHPERASEKILGSDDGLKMFKGMIDYAKRI | soluble |
| MTESITRDSMQYDVVIVGAGPSGLSAAIKLKQLAEQNGREISVCVVEKGSEVGAHSLAGAVIDPIALNELISDWKEKGAPLTRTVTQDKVLFLTEKKAFNLPITPNFDNHGNYIVSLGEVVRWLAEQAENMGVEIYPGFAAAEVLYHEDGSVKGIATGNMGIGKDGEPTDSFQPGMELWAQQTLFAEGCRGSLSKQIIERFQLDQNSQPQTYGLGIKEVWEVPSEQHQPGLVVHSAGWPLDSKTYGGAFVYHFDDNKVAVGFVVGLDYQNPYLSPFEEFQRFKTHPEIRKTFEGGRRIAYGARSLIEGGLQSLPKLSFKGGILVGDAAGFLNMPRIKGIHTAMKSAMLAAEAVFPLLENLEEVEGFDSGKEAADYQQRFEQSWLYQELYAARNVRPSFKWGVYLGSIYTGIDQMIFRGKAPWTLKHHGKDNEQLKKAAACKPIDYPKPDGVLTFDRLSSVFLANLAHEENQPDHLVLNNPQTMIDVNYKEYASPETRYCPAGVYEIVEENGNPRLQINAANCVHCKTCDIKDPTQNITWICPEGASGPNYGGM | not soluble |
| PPNEQAVLNMYEGKRSELSQIYSNITDLEMQVSEHSLVINAIQPLDQSRKCFRMIGGVLVERTIKEVLPAVQRNKDGLEEVVRKLYETLEKKKKDLTEFEAKYKIRITKQEDNKEGGNKKEGNAQGVLVGAASSSQ | not soluble |
| GPGSMVLSSPVITLRRMVHFSSTPTSLHSRSSTSPLDALVDEVSSFIPATFTSIPQISRQLPPELMERVCDPVCGGLRSLLSRYAERFESKMIGQVHVVRSRLRQRESAAPCRRANAGAEVGYSFAVPSSPSGNAAAAASKSNSVDVQAVFTELQQLFPSYLVPVKALWTTVPEAEEQQVRARVLDALRSPQHRAWLTFHEHPAHCASHSTSADEAELTHVLEHGYVQLRLNPAAGDDRAAAPMPQSPNTRMAGHEVQPYEWYRVARVLPTTATELLFSGELQEQATLLLPPGRDVWHVLLSAPALFELRYAAPTTVDSGQQARVPTLSAEGSSLAPVCVKYDATPPPSLCASVYVRFRLEERFVPPDMAGAREESILRELETLTAERAASACGLSSRQRRRKRKLQRQLAYLRNPTPYFDERVLAQHLFDLLPLRDGVHQSALLGSLPQPAVQAFPQNVTELLQARNDLFQLSDVRHGILVRRADAPKVAQRSIESVTGEEILLHIFSSYSLRSDPQEGTTISRSLPRLPRLVRERLFTMQDIIAEVLLLYPDKVEVLADRSPSISSLSLSSSPHTSEADERALRELRTVRGRRDFLVPFRFVGEWQAKLTEKYTKQQTKDAVKSMRARQRSESSHRRPARY | not soluble |
| MKLDAILWDYDGTLVNSVPKNIEITKAILAIVAPHLTGDNLPKYLHSEANYHYANHAAKNWQELYVDYYGMSHDEMLQAGGLWAEHQEKNQTPVTLFEGIDGVIKEFAQLPHGICSQNSQSNIRRVLSDNGISAPFKSIVGYDDVSNGHQKPDAYSGIKCVESIFGHAENRQLMYIGDHEADTQFARNIEQQLGGQSKVIAVAAAYSGAMPEHWSVQPDYVARTVDELFSIIAQHT | not soluble |
| GPGSMQIRRATMEDMYQMQHCNLRCLPENYNLRYYFYHILSWPQLLYVQEDYNRNIVGYVLAKMEDEEKPANIHGHITSIAVLRTHRRLGIASRVMRASMKEMEKEYDANYCSLHVRKTNDAALHLYQETLGFRCANVEKGYYVDEEDAFHMKKFFKGPNPGLYVAANRQLVRQQNSAAAAVTGMAALQRNGGTAPPPPPPSSSSAGGQRGENDTADLEKEQLKLVAELLEESNKESGKGRQQKQKQQQQSKGGNKRGKTKK | soluble |
| MGSDKIHHHHHHGADVETPSVSISVSPENPKVGEEVTVTINTDAQYLTLFTGDEGKNFERSRIKAIMEHDWDSFYEECYRVSYAKNGEKTLFYKYFKDYQSIEDVKKDFEFFGAIDNIQLVPYKKGDFPEALMEMSYIGTNQLKFTVTDRRIPSGIRMKPNIHIFGGLANQPGNTIIESRFVACDADRAIRKYSNDAWVAAYFGLHTEQLEDFQGYSAGYKYYTFQDERSYGAFQTNDPLSRRPTEGFYKLGDMYNRDTYLQPFLDHGEKIILRQVDMYVNGRSTFVAADDSPYKYDLDGDGVLESYECELDPATGLPVHEADYTKYKGFQGDVYLSFIEMGTDEYEPWNTGVSLGSVYTTGGIQKTYKYIYTGAGDFTITAVATNVGDKDYKGIDYSEERSNSLDDYSHKRALSSVKVSVKP | not soluble |
| MLNQLDNLTERVRGSNKLVDRWLHVRKHLLVAYYNLVGIKPGKESYMRLNEKALDDFCQSLVDYLSAGHFSIYERILHKLEGNGQLARAAKIWPQLEANTQQIMDYYDSSLETAIDHDNYLEFQQVLSDIGEALEARFVLEDKLILLVLDAARVKHPA | soluble |
| MAHHHHHHMAEAKVVKDLAEVCASGAETYSAWTTAKALVQRRYLSAKAQGTFEDCGKLLASLTRVLQTYLRIDLAQELLSDVLFQVMEHFSAKQAAGATAAVVKDGGAPQSSFDLAAANFLQHMFDTLLSATTRTYTLMGPMPLVVEWNRDADSGGVEAAVAQSKHAAPWAEAVVLEFAVRAADFLSQRPQSADVLSHWAQNLFVSYEQLLALRLALPSSPPSTPQDGKAASAAAPSPSVPVPTLASQLLRMSTFNRASRTGKESSDSTSAATTPLTAAVYWLTHFAREPNAVNHLFAQYVYFDILGRGQQRSSTANTTPGNSGAPAKMLRERVNAALEERCTLTRREAISMARAAVEAYWQAFPLVLQQTSSVSSPQPSSCAGESSKEDANVDPQDVHLYRWTWFLDSLTLTFAYSGSASASIDEDAAVQQRERQKHVCAQLLELYADVTAELPGLKWQELVAAYIGA | soluble |
